T1: hOX40-EGFP on HEK293 cells (human, UniProt P43489 29-277)
T1 construct: EGFP fusion on transfected HEK293 cells; not shown: enhanced green fluorescent protein (EGFP), UniProt C5MKY7
T1 sequence (looked up): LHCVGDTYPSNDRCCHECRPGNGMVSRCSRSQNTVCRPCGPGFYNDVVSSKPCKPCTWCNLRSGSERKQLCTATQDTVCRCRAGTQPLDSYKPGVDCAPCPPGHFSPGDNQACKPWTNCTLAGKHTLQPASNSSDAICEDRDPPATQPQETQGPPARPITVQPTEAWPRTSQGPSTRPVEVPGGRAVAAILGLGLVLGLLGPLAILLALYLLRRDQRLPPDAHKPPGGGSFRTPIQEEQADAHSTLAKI

T2: hCD27-EGFP on HEK293 cells (human, UniProt P26842 20-260)
T2 construct: EGFP fusion on transfected HEK293 cells; not shown: enhanced green fluorescent protein (EGFP), UniProt C5MKY7
T2 sequence (looked up): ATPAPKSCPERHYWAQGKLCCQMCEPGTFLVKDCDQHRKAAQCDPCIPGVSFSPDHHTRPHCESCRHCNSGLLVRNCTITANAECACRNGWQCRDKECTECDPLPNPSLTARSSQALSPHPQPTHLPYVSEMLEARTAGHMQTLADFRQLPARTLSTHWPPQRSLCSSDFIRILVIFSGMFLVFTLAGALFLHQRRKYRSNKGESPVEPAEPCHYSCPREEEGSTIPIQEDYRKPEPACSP

T3: hGITR-EGFP on HEK293 cells (human, UniProt Q9Y5U5 26-241)
T3 construct: EGFP fusion on transfected HEK293 cells; not shown: enhanced green fluorescent protein (EGFP), UniProt C5MKY7
T3 sequence (looked up): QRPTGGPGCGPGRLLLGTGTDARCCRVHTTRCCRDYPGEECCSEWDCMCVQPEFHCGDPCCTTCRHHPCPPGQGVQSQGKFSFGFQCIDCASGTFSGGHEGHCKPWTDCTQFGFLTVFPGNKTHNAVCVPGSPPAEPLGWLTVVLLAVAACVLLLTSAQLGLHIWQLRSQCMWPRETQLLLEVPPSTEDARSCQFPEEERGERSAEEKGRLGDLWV

T4: RhCD137-muFc (rhesus monkey; mouse)
T4 construct: Residues 1-186 as stated; no signal peptide cleavage site is stated; also called Rhesus monkey CD137; CD137 of rhesus monkey
T4 chain: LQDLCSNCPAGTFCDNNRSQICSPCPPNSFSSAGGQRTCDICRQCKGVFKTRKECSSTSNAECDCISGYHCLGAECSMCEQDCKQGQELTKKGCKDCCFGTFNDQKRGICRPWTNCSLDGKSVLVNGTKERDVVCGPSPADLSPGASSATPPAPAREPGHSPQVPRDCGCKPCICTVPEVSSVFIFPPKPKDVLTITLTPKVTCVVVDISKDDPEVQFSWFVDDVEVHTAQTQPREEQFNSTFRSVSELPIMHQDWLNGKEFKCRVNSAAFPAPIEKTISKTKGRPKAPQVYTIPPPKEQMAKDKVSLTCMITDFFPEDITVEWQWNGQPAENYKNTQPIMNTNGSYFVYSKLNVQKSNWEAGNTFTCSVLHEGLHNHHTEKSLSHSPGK


What was measured:
[1] = target: T1, hOX40-EGFP on HEK293 cells; test: flow cytometry on transfected HEK293 cells, anti-hIg-PE
Experimental: (§1) HEK293 cells expressing hCD137-EGFP, hOX40-EGFP, hCD27-EGFP and hGITR-EGFP constructed in Example 1 were resuspended in 0.5% PBS-BSA Buffer and anti-hCD137 C2scFv and C14 scFv protein were added, the negative control was hIgG Fe protein, then the mixture was incubated on ice for 20 min. After washing, secondary antibody anti-hIg-PE (eBioscience) was added and was incubated on ice for 20 min. After washing, the cells were resuspended in 500 μL of 0.5% PBS-BSA Buffer and detected by flow cytometry.
(§2) HEK293 cells expressing hCD137-EGFP, hOX40-EGFP, hCD27-EGFP and hGITR-EGFP constructed in Example 1 were resuspended in 0.5% PBS-BSA Buffer and anti-hCD137 C14 mAb protein was added, the negative control was hIgG Fc protein, then the mixture was incubated on ice for 20 min. After washing, a secondary antibody anti-hlg-PE (eBioscience) was added and incubated on ice for 20 min. After washing, the cells were resuspended in 500 μL 0.5% PBS-BSA Buffer and detected by flow cytometry.

[2] = target: T2, hCD27-EGFP on HEK293 cells; test: as above
Experimental: as §1, §2

[3] = target: T3, hGITR-EGFP on HEK293 cells; test: as above
Experimental: as §1, §2

hCD137-muFc [4] = target: T5, hCD137-muFc (human; mouse, UniProt Q07011 24-186); test: SPR, BIAcore X100; scFv captured by anti-hFc on a CM5 chip, CD137-muFc as analyte 1000-31.6 nM; 1:1 Langmuir model
T5 construct: range 1-186; It states no cleavage site; Made in HEK293 and purified on protein A; also called recombinant human CD137; not shown: mouse IgG1-Fc (muFc) domain, residues 98-324 of UniProt P01868
Experimental: (§3) The binding kinetics of anti-hCD137 C2scFv and C14 scFv antibodies against the recombinant human CD137 were measured by surface plasmon resonance (SPR) process using a BIAcore X100 instrument. Anti-hFc antibody (not cross-identifying mouse Fc) was conjugated on CM5 chip, C2 scFv or C14 scFv was diluted to 5 nM with running buffer and captured as a ligand by the antibody on the chip. CD137-muFc was diluted with running buffer to 1000-31.6 nM, diluted twice to a total of 6 concentrations. The injection time was 180 s, the dissociation time was 1800 s and the regeneration time was 60 s. The running buffer was HBS-EP+, and the regeneration buffer was 10 mM glycine-HCl (pH 2.0). The association rate (Kₒₙ) and the dissociation rate (Koff) were calculated using a simple one-to-one Languir binding model (BIAcore Evaluation Software version 3.2). The equilibrium dissociation constant (KD) was calculated as the ratio of Koff/Kₒₙ.

hCD137-muFc [5] = target: T5, hCD137-muFc; test: SPR, BIAcore X100; anti-hFc on a CM5 chip, CD137-muFc as analyte 100-3.16 nM; 1:1 Langmuir model
Experimental: as §3, with “antibody” for “C2scFv and C14 scFv antibodies”, “CD137-muFc” for “C2 scFv or C14 scFv”, “nM (C14Mab) or 100-3.16 nM (C14 Mab new),” for “nM,”

RhCD137-muFc = target: T4, RhCD137-muFc; test: ELISA, RhCD137-muFc coated at 5 ug/mL, antibody titrated 3-fold, goat anti-hIgG-HRP, OD450-650
Experimental: RhCD137-muFc was diluted to 5 μg/mL 100 μL/well, with coating buffer (50 mM Na₂CO₃, NaHCO₃ pH 9.6), overnight at 4° C. After washing, the plates were blocked with 3% BSA-PBS for 1 h at 37° C. Anti-hCD137 14#mAbnew antibodies were respectively diluted from 2000 ng/mL and were diluted 3-fold, with the diluent (1% BSA-PBS) as a control, and incubated for 2 h at 37° C. Goat anti-hIgG-HRP conjugated was added and incubated for 1 h at 37° C. The soluble one-component TMB substrate developing solution was added, and the developing was performed in dark at room temperature for 5-10 min. 2N H₂SO₄ 50 μL/well was added to terminate the color development reaction. The OD_{450 nm-650 nm} values were read on MD Spectra Max Plus 384 microplate reader, and SoftMax Pro v5.4 was used for data processing and diagraph analysis, with the results shown in FIG. 8, in which it can be seen that anti-hCD137 14#mAb new may bind to CD137 of rhesus monkey.

Row | Binder | binding result [1] | binding result [2] | binding result [3] | Kd (hCD137-muFc [4]) | koff (hCD137-muFc [4]) | kon (hCD137-muFc [4]) | Kd (hCD137-muFc [5]) | koff (hCD137-muFc [5]) | kon (hCD137-muFc [5]) | binding result (RhCD137-muFc)
1 | anti-hCD137 C2 scFv (scFv, The junction between scFv and Fc is not described; not shown: human IgG1-Fc domain, residues 104-330 of UniProt P01857) scFv: EVQLVESGGGLVQPGGSLRLSCAASGFTVSDYYMNWIRQAPGKGLEWVSYISSSASGSTIYYADSVKGRFTISRDNANNSLYLHMDSLRAEDTAIYFCARVVPAGSGWRWFDPWGQGTLVTVSSGGGGSGGGGSGGGGSQSVLIQPPSASGSPGQSVTISCTGISSDVGAYDYVSWYQQHPGKVPKLMIYEVSKRPSGVPDRFSGSKSGDTASLTVSGLQAEDEADYYCSSHAGSNNFYVFGTGTKLTVL | no binding | no binding | no binding | 11.6 nM | 0.000128 s⁻¹ | 11000 M⁻¹ s⁻¹ |  |  |  | 
2 | anti-hCD137 C14 scFv (scFv, The junction between scFv and Fc is not described; also called anti-CD137 14#ScFv; not shown: human IgG1-Fc domain, residues 104-330 of UniProt P01857) scFv: QVQLQQSGPGLVKPSQTLSLTCAISGDSVSSNSAAWNWIRQSPSRGLEWLGRTYYRSKWYNDYAPSVESRITINPDTSKNQFSLQLSSVTPEDTAVYYCARDPPYVLSTFDIWGQGTMVTVSSGGGGSGGGGSGGGGSNFMLTQPPSVSESPGKTVTISCTRSSGNIASFYVQWFQQRPGSSPTTVIYEDDQRPSGVPDRFSGSIDRSSNSASLTISGLTTDDEADYYCQSYDTNNVIFGGGTKLTVL | no binding | no binding | no binding | 23.8 nM | 0.000263 s⁻¹ | 11200 M⁻¹ s⁻¹ |  |  |  | 
3 | anti-CD137 14#mAb new (antibody, V domains shown, L50 E to D, L93 T to I and L95 N to K against C14; IgG4 / lambda; also called C14 mAbnew; C14 Mab new; not shown: human IgG4 constant region, UniProt P01861 (same method as C14mAb); human lambda light chain constant region, UniProt A0M8Q6 (same method as C14mAb)) VH: QVQLQQSGPGLVKPSQTLSLTCAISGDSVSSNSAAWNWIRQSPSRGLEWLGRTYYRSKWYNDYAPSVESRITINPDTSKNQFSLQLSSVTPEDTAVYYCARDPPYVLSTFDIWGQGTMVTVSS VL: NFMLTQPPSVSESPGKTVTISCTRSSGNIASFYVQWFQQRPGSSPTTVIYDDDQRPSGVPDRFSGSIDRSSNSASLTISGLTTDDEADYYCQSYDINKVIFGGGTKLTVL |  |  |  |  |  |  | 2.68 nM | 0.000907 s⁻¹ | 338000 M⁻¹ s⁻¹ | binds
4 | anti-hCD137 C14 mAb (antibody, human IgG4, V domains shown, domain: constant region; Human IgG4 / lambda antibody made in HEK293; also called anti-CD137 14#mAb; not shown: human immunoglobulin lambda light chain constant region, UniProt A0M8Q6) VH: QVQLQQSGPGLVKPSQTLSLTCAISGDSVSSNSAAWNWIRQSPSRGLEWLGRTYYRSKWYNDYAPSVESRITINPDTSKNQFSLQLSSVTPEDTAVYYCARDPPYVLSTFDIWGQGTMVTVSS VL: NFMLTQPPSVSESPGKTVTISCTRSSGNIASFYVQWFQQRPGSSPTTVIYEDDQRPSGVPDRFSGSIDRSSNSASLTISGLTTDDEADYYCQSYDTNNVIFGGGTKLTVL | no binding | no binding | no binding |  |  |  |  |  |  | 

Reference: US20180282422A1 (DINGFU BIOTARGET, published 2018)
